Assay results: patent publication US20160032001A1 (APEXIGEN, published 2016)
Where two headings read alike, the source gives them in different places.

How the values were obtained:
[1] = biological target: T1, RANKL expressed on the surface of 293 cells (UniProt O14788 1-317, limits assumed); assay: flow cytometry (MFI) on RANKL-transfected 293 cells
T1 construct: whole, on cells; also called RANKL-transfected 293 cells; cells expressing RANKL
T1 sequence (looked up): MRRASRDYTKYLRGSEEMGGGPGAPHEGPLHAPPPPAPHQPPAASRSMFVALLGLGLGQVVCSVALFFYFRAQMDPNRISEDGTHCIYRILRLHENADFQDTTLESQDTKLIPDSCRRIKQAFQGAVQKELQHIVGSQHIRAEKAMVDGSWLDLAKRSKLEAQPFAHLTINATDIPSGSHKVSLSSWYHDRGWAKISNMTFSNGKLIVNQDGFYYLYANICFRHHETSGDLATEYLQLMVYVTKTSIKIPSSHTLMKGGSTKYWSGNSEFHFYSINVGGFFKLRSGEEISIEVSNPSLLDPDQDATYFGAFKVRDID

human RANKL protein [2] = biological target: T2, human RANKL protein (human, UniProt O14788 140-317, limits assumed); assay: competition ELISA: RANKL (0.5 ug/ml) pre-incubated with the antibody, then binding to coated RANK (8 ug/ml) detected; blocked partner RANK [table at the lower right]
T2 sequence (looked up): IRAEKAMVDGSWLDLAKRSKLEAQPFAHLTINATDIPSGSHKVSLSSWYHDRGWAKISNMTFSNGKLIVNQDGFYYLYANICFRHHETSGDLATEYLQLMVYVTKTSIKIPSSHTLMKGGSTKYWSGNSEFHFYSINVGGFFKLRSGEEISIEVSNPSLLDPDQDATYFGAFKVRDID

[3] = biological target: T1, RANKL expressed on the surface of 293 …; assay: flow cytometry (MFI) on RANKL-transfected 293 cells; remark: listed apart in the source
human RANKL protein [4] = biological target: T2, human RANKL protein; assay: competition ELISA: RANKL (0.5 ug/ml) pre-incubated with the antibody, then binding to coated human RANK (8 ug/ml) detected; blocked partner RANK
[5] = biological target: T1, RANKL expressed on the surface of 293 …; assay: flow cytometry (MFI) on RANKL-transfected 293 cells; remark: listed apart in the source
human RANKL protein [6] = biological target: T2, human RANKL protein; assay: ELISA on RANKL protein (OD450nm)
human RANKL protein [7] = biological target: T2, human RANKL protein; assay: competition ELISA: RANKL (0.5 ug/ml) pre-incubated with the antibody, then binding to coated human RANK (8 ug/ml) detected; blocked partner RANK; remark: listed apart in the source
human RANKL protein [8] = biological target: T2, human RANKL protein; assay: surface plasmon resonance
human RANKL protein [9] = biological target: T2, human RANKL protein; assay: cell-based or functional assay
[10] = biological target: T1, RANKL expressed on the surface of 293 …; assay: flow cytometry (MFI) on RANKL-transfected 293 cells; remark: listed apart in the source
[11] = biological target: T1, RANKL expressed on the surface of 293 …; assay: as above; remark: listed apart in the source
human RANKL protein [12] = biological target: T2, human RANKL protein; assay: competition ELISA: RANKL (0.5 ug/ml) pre-incubated with the antibody, then binding to coated human RANK (8 ug/ml) detected; blocked partner RANK; remark: listed apart in the source
human RANKL protein [13] = biological target: T2, human RANKL protein; assay: as above; remark: listed apart in the source

B1: humanized clone 408 anti-RANKL antibody (antibody, V domains shown)
VH: EVQLVESGGGLVQPGGSLRLSCAVSGFSLSTDVVSWVRQAPGKGLEWIGYTWNGGATFYASWAKGRFTFSKDSSKNTVYLQMNSPRAEDTAVYFCARGYNGMDPWGPGTLVTVSS
VL: DIQMTQSPSSLSASVGDRVTIKCQASQNIGSNLAWYQQKPGKPPKLLISKASTLASGVPSRFSGSGSGTDFTLTISSLQPEDFATYYCQQGYTTKNVVNPFGGGTKVEIK
Question: How did the EC50 [1] turn out when B1 was run?
Answer: Its EC50 is 0.731 µg/mL.

Question: What about the IC50 (human RANKL protein [2]) of the same binder?
Answer: The IC50 was 0.096 µg/mL.

B2: humanized clone EBI-51-22 anti-RANKL antibody (antibody, V domains shown)
VH: EVQLVESGGGLVQPGGSLRLSCAVSGFSLSTDVLSWVRQAPGKGLEWIGYTWSGGSTYYASWAKGRFTISKDSSKNTVYLQMNSPRAEDTAVYFCARGFNPFDPWGPGTLVTVSS
VL: DIQMTQSPSSLSASVGDRVTIKCQASQNIGSNLAWYQQKPGKRPKLLIYRASTLASGVPSRFSGSGSGTDFTLTISSLQPEDFATYYCQQGYSAGNVDNNAFGGGTKVEIK
notes: also called humanized EBI-51-22; humanized EBI51-22
Question: Which results are given for B2?
Answer: EC50 [1]: 0.361 µg/mL; IC50 (human RANKL protein [2]): 0.127 µg/mL

B3: clone 480 rabbit anti-RANKL antibody (antibody, V domains shown)
VH: QSLEESGGRLVTPGGSLTLTCTVSGFSLSNYEINWVRQAPGKGLEWIGYIDVGSGTWYASWAKGRFTISKTSTTVDLKITSPTTGDTATYFCSRSYNPMDLWGPGTLVTVSS
VL: DMTQTPASVEVAVGGTVTIKCQASQNIGSNLAWYQQKPGQRPKLLIYSASTLASGVPSRFKGSGSGTQFTLTISGVQCDDAATYYCQQGYSVGNVNNAFGGGTEVVVK
Question: B3 was tested. Which EC50 [3] did it give?
Answer: The EC50 was 0.172 µg/mL.

Question: What about the IC50 (human RANKL protein [4]) of the same binder?
Answer: The IC50 was 0.0284 µg/mL.

B4: humanized clone 23 antibody, VH 23HZD-1 HC with humanized VL 23 Vk (antibody, V domains shown)
VH: EVQLVESGGGLVQPGGSLRLSCAASGFSLSSDGMSWVRQAPGKGLEWIGYIYSGSSPYYANWAKGRFTISKDSSKNTVYLQMNSLRAEDTAVYFCARHGSGGGWYLDIWGPGTLVTVSS
VL: DIQMTQSPSSLSASVGDRVTINCQASQTIGTNLAWYQQKPGKRPKLLIYAASTLPSGVPSRFSGSGSGTDFTLTISSLQPEDFATYYCQQAYSVGNVDNAFGGGTKVEIK
notes: also called humanized 23 Vk; 23LHZD
Question: B4 was tested. Which EC50 [5] did it give?
Answer: The EC50 was 0.414 µg/mL.

Question: And the IC50 (human RANKL protein [2])?
Answer: The IC50 was 0.112 µg/mL.

B5: humanized clone 23 antibody, VH 23HZD-1 HC with humanized VL 23 Vkb, IgG1 (antibody, V domains shown)
VH: EVQLVESGGGLVQPGGSLRLSCAASGFSLSSDGMSWVRQAPGKGLEWIGYIYSGSSPYYANWAKGRFTISKDSSKNTVYLQMNSLRAEDTAVYFCARHGSGGGWYLDIWGPGTLVTVSS
VL: DIQMTQSPSSLSASVGDRVTINCQASQSIGSNLAWYQQKPGKRPKLLIYAASTLPSGVPSRFSGSGSGTDFTLTISSLQPEDFATYYCQQAYSVGNVDNAFGGGTKVEIK
notes: also called h23 IgG1
Question: Which EC50 (human RANKL protein [6]) does the source give for B5 here?
Answer: The EC50 was 0.0425 µg/mL.

B6: h23n IgG2 humanized clone 23 antibody (antibody, V domains shown)
VH: QEQLVESGGGLVQPGGSLRLSCVASGFSLSSDGMSWVRQAPGKGLEWIGYIYSGSSPYYANWAKGRFTISKDSSTNTVFLQMNSLRAEDTAVYFCARHGDGGGWYLDIWGPGTLVTVSS
VL: DIQMTQSPSSLSASVGDRVTINCQASQSIGSNLAWYQQKPGKAPKLLIYAASTLPSGVSSRFSGSGSGTDFTLTINSLEAEDAATYYCQQAYSVGNVDNAFGGGTKVEIK
notes: IgG2; also called h23n VH and VL
Question: With B6 as the binder, how does the EC50 (human RANKL protein [6]) read?
Answer: The EC50 was 0.0117 µg/mL.

B7: humanized clone 23 antibody, VH 23HZD-1 HC with humanized VL 23 Vkb, IgG2 (antibody, V domains shown)
VH: EVQLVESGGGLVQPGGSLRLSCAASGFSLSSDGMSWVRQAPGKGLEWIGYIYSGSSPYYANWAKGRFTISKDSSKNTVYLQMNSLRAEDTAVYFCARHGSGGGWYLDIWGPGTLVTVSS
VL: DIQMTQSPSSLSASVGDRVTINCQASQSIGSNLAWYQQKPGKRPKLLIYAASTLPSGVPSRFSGSGSGTDFTLTISSLQPEDFATYYCQQAYSVGNVDNAFGGGTKVEIK
notes: also called humanized 23 vkb; humanized 23 VKB
Question: B7 was tested. Which EC50 [5] did it give?
Answer: The EC50 was 0.947 µg/mL.

Question: And the IC50 (human RANKL protein [2])?
Answer: Its IC50 is 0.081 µg/mL.

Question: What about the EC50 (human RANKL protein [6]) of the same binder?
Answer: Its EC50 is 0.0238 µg/mL.

B8: clone 476 rabbit anti-RANKL antibody (antibody, V domains shown)
VH: QSLEESGGGLVQPEGSPTLTCTAYLIDFSRYGYMCWVRQAPGKGLEWIGCIHAGRSGRTYYANWAKGRFTISKTSSTTVTLQMTSLTAADTATYFCAKSGDSYVGYFALWGPGTLVTVSS
VL: DIVMTQTPASVEAAVGGTVTIKCQASENIYNYLSWYQQKPGQPPKLLIYEASKLASGVSSRFKGSGSGTEFTLTISDLECADAATYYCQSYYDVTSHSYDNPFGGGTEVVVS
Question: Which EC50 [3] does the source give for B8 here?
Answer: Its EC50 is 0.0632 µg/mL.

Question: What about the IC50 (human RANKL protein [4]) of the same binder?
Answer: The IC50 was 0.0301 µg/mL.

B9: clone 23 rabbit anti-RANKL antibody (antibody, V domains shown)
VH: QEQLKESGGGLVTPGGTLTLTCTASGFSLSSDGMSWVRQAPGKGLEWIGYIYSGSSPYYANWAKGRFTISKTSSTTVDLKMTSLTTEDTATYFCARHGSGGGWYLDIWGPGTLVTVSS
VL: AYDMIQTPASVEVAVGGTVTINCQASQTIGTNLAWYQQKPGQRPKLLIYAASTLPSGVSSRFKGSGSGTQFTLTISDVECSDAATYYCQQAYSVGNVDNAFGGGTEVVVK
notes: also called RabMAb 23; parent 23 rabbit antibody
Question: Which results are given for B9?
Answer: IC50 (human RANKL protein [7]): 0.0111 µg/mL; Kd (human RANKL protein [8]): 0.162 nM; koff (human RANKL protein [8]): 0.000154 s⁻¹; kon (human RANKL protein [8]): 950000 M⁻¹ s⁻¹; IC50 in a RAW cell assay (TRAP activity, OD 405 nM) (human RANKL protein [9]): 0.00171 µg/mL; EC50 [5]: 0.1 µg/mL; EC50 [10]: 0.0903 µg/mL; IC50 (human RANKL protein [2]): 0.041 µg/mL

B10: clone 547 rabbit anti-RANKL antibody (antibody, V domains shown)
VH: QEQLKESGGGLVTPGGTLTLTCTASGFSLSSNGMSWVRQAPGKGLEWIGYIYSGSSPYYASWAKGRFTISKTSSTTVDLKMTSLTTEDTAKYFCARHVSGGGWYLDIWGPGTLVTVSL
VL: DMIQTPASVEVAVGGTVTINCQASQSIGSNLAWYQQKPGQRPKLLIYGASTLASGVSSRVKGSGSGTQFTFTISDVECTDAATYYCQQAYSISNVDNAFGGGTEVVVK
Question: With B10 as the binder, how does the EC50 [3] read?
Answer: The EC50 was 0.398 µg/mL.

Question: And the IC50 (human RANKL protein [4])?
Answer: Its IC50 is 0.0812 µg/mL.

B11: clone EBI-51-22 rabbit anti-RANKL antibody (antibody, V domains shown)
VH: QSVEESGGRLVTPGTLLTLTCTVSGFSLSTDVLSWVRQAPGKGLEWIGYTWSGGSTYYASWAKGRFTISKTSSTTVDLKITSPTTEDTATYFCARGFNPFDPWGPGTLVTVSS
VL: DMTQTPASVSDPVGGTVTIKCQASQNIGSNLAWYQQKPGQRPKLLIYRASTLASGVSSRFKGSGSGTQFTLTISDLECADAATYYCQQGYSAGNVDNNAFGGGTEVVVK
Question: What does the source list for B11?
Answer: EC50 [11]: 0.083 µg/mL; IC50 (human RANKL protein [12]): 0.0439 µg/mL; Kd (human RANKL protein [8]): 0.312 nM; koff (human RANKL protein [8]): 0.000275 s⁻¹; kon (human RANKL protein [8]): 880000 M⁻¹ s⁻¹; IC50 in a RAW cell assay (TRAP activity, OD 405 nM) (human RANKL protein [9]): 0.0036 µg/mL; EC50 [1]: 0.4 µg/mL; IC50 (human RANKL protein [2]): 0.083 µg/mL

B12: clone 408 rabbit anti-RANKL antibody (antibody, V domains shown)
VH: QSVEESGGRLVTPGTPLTLTCTVSGFSLSTDVVSWVRQAPGKGLEWIGYTWNGGATFYASWAKGRFTFSKTSTTVDLKITSPTTEDTATYFCARGYNGMDPWGPGTLVTVSS
VL: DMTQTPASVEAAVGGAVTIKCQASQNIGSNLAWYHQKPGQPPKLLISKASTLASGVPSRFKGSGSGTEFTLAISDLECADAATYYCQQGYTTKNVVNPFGGGTEVVVK
Question: With B12 as the binder, how does the Kd (human RANKL protein [8]) read?
Answer: The Kd was 0.432 nM.

Question: And the koff (human RANKL protein [8])?
Answer: Its koff is 0.000262 s⁻¹.

Question: What about the kon (human RANKL protein [8]) of the same binder?
Answer: Its kon is 607000 M⁻¹ s⁻¹.

Question: And the IC50 (human RANKL protein [13])?
Answer: Its IC50 is 0.058 µg/mL.

Question: What about the EC50 [3] of the same binder?
Answer: The EC50 was 0.0898 µg/mL.

Question: What about the “IC50 in a RAW cell assay (TRAP activity, OD 405 nM)” value (human RANKL protein [9]) of the same binder?
Answer: The value was 0.00644 µg/mL.

Question: What about the EC50 [1] of the same binder?
Answer: Its EC50 is 0.303 µg/mL.

Question: What about the IC50 (human RANKL protein [2]) of the same binder?
Answer: Its IC50 is 0.098 µg/mL.
